This is an account of results in patent publication US20260008865A1.

Experiment [1] has as its target SelSP1 (PSGL-1 sulfopeptide). Kind of experiment: SPR; SelSP1 surface (FC3) blocked with 40 µg/mL antibody, then 990 nM CCL27 as competitor; Rep. 1. In general terms: SPR reads the build-up and loss of mass on a sensor chip optically.
The target in experiment [2] is SelSP1 (PSGL-1 sulfopeptide). Kind of experiment: SPR; summary sentence in the description; target printed as PSGL-1, but the worked example used the PSGL-1 sulfopeptide SelSP1.
Experiment [3] deals with SelSP1 (PSGL-1 sulfopeptide). The experiment in a line: SPR; SelSP1 surface (FC2) blocked with 40 µg/mL antibody, then 990 nM CCL27 as competitor; Rep. 2.
In experiment [4] the target is SelSP1 (PSGL-1 sulfopeptide). Kind of experiment: SPR; SelSP1 surface (FC2) blocked with 40 µg/mL antibody, then 990 nM CCL27 as competitor; Rep. 1.
Experiment [5] has as its target SelSP1 (PSGL-1 sulfopeptide). Kind of experiment: SPR; SelSP1 surface (FC3) blocked with 40 µg/mL antibody, then 990 nM CCL27 as competitor; Rep. 3.
Experiment [6] addresses SelSP1 (PSGL-1 sulfopeptide). Kind of experiment: SPR; SelSP1 surface blocked with 40 µg/mL antibody, then 990 nM CCL27 as competitor; average over FC2 and FC3 replicates.
Experiment [7] deals with SelSP1 (PSGL-1 sulfopeptide). Kind of experiment: SPR (SensiQ Pioneer), antibody captured on Protein G, SelSP1 as analyte, 25 °C, 1:1 model.
Experiment [8] has as its target SelSP1 (PSGL-1 sulfopeptide). The experiment in a line: SPR; SelSP1 surface (FC3) blocked with 40 µg/mL antibody, then 990 nM CCL27 as competitor; Rep. 2.
In experiment [9] the target is SelSP1 (PSGL-1 sulfopeptide). The experiment in a line: SPR; SelSP1 surface (FC2) blocked with 40 µg/mL antibody, then 990 nM CCL27 as competitor; Rep. 3.

As usually defined, the Kd is the concentration at which binding is half-saturated. A high value points to weaker binding. Broadly, the koff is the first-order rate constant of dissociation. One may read the kon as the second-order rate constant of association. Read a low kon as slower complex formation.

B1: Parental antibody (antibody, V domains shown)
VH: DVQLVESGGGLVQPGGSRKLSCAASGFTFSSFGMHWVRQAPEKGLEWVAYISSASSTIYYADTVKGRFTISRDNPKNTLFLQMTSLRSEDTAMYYCASSYGYWGQGTTLTVSS
VL: DVVMTQTPLSLPVSLGDQASISCRSSRSLVHSNGNTYLHWYLQKPGQSPQLLIYKVSNRFSGVPDRFSGSGSGTDFTLKISRVEAEDLGVYFCSQTTHVPLTFGAGTRLELKR
Turning to B1, the Percent CCL27 Inhibition in experiment [1] turned out to be 50.5%; in [3], 50.6%; in experiment [4] it was 57.1%; in experiment [5], 47%; in experiment [8], 43.1%; in [9], 53.5%. Moreover, the Kd is 16.6 nM in [2] and 16.4 nM in experiment [7]. Moreover, the Percent CCL27 Inhibition (Avg.) in [6] was determined as 50%. In experiment [7], the koff worked out at 0.00497 s⁻¹. The same molecule had a kon in experiment [7] of 303000 M⁻¹ s⁻¹.
